No end group written: not given here.
Assays:
[1] = biological target: T1, Mtr4-ΔN (helicase region of Mtr4, residues 81–1073) (S. cerevisiae, UniProt P47047 81-1073); assay: ITC
T1 sequence (looked up): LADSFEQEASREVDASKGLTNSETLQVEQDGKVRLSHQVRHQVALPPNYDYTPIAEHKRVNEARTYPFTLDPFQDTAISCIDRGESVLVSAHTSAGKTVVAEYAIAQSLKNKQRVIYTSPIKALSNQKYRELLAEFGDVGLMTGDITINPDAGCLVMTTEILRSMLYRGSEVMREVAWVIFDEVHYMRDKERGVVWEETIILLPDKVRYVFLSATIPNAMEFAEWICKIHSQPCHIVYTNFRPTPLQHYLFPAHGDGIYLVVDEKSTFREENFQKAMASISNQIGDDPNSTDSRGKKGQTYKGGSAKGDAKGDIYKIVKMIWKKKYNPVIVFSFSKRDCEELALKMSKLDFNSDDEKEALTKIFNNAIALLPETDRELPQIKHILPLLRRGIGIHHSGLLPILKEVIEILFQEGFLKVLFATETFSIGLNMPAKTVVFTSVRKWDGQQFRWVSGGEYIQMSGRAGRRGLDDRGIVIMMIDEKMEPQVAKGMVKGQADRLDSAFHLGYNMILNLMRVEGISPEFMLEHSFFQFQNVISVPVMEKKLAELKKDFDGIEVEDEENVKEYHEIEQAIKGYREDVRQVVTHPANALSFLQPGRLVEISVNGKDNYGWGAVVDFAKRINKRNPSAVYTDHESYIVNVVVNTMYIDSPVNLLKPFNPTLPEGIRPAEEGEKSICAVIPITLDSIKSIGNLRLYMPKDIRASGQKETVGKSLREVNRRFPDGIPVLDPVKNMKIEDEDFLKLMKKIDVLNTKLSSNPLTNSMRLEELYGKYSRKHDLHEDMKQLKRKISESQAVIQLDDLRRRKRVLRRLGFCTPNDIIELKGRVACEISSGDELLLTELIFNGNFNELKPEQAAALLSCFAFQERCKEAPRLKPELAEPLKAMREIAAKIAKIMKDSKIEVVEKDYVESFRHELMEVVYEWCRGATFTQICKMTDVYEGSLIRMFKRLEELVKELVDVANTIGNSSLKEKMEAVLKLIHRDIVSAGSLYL

[2] = biological target: T2, GST-tagged yeast Mtr4 short arch (GST-Mtr4^SA, residues 638–842), wild type (S. cerevisiae, UniProt P47047 638-842); assay: pull-down
T2 sequence (looked up): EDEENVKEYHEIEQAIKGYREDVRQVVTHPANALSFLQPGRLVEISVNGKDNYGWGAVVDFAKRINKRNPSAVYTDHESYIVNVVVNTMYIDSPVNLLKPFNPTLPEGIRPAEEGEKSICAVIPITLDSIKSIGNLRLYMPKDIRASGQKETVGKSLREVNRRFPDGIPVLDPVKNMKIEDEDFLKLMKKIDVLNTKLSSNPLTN

B1: Utp18_(prot) (Utp18 residues 78–110) (domain or fragment, S. cerevisiae, UniProt P40362 78-110, looked up)
chain: HVNNDQLFFVDDGGNEDSQDKNEDTMDVDDEDD
Kd [1]: ~20 µM

B2: Z-tagged Nop53 (residues 48–99) (domain or fragment, S. cerevisiae, UniProt Q12080 48-99, looked up)
chain: GTSDITSLQNDALFHVDVEGDEILKNKLIKRKQIKKVLKSKEILDAVKTNSK
modifications: also: Z-tagged
binding result [2]: binds

B3: Nop53_(prot) (Nop53 residues 58–91) (domain or fragment, S. cerevisiae, UniProt Q12080 58-91, looked up)
chain: DALFHVDVEGDEILKNKLIKRKQIKKVLKSKEIL
Kd [1]: ~18 µM

Source: PMC5688999 (RNA, 2017)
